Biological target: 14R1 revertant mutant E
Test: ELISA, epitope mapping

B1: monoclonal antibody 61D8 (IgG) (antibody, V domains shown)
VH: CKASGYSFTSYWMHWVKQRPGQGLEWIGMIDPSDSETKLNQQFKDKATLTVDTSSSTAYMQLTSPTSEDSVVYYCARGKMGGRFYFDYLGQGTTLTVSS
VL: ITCKASQDVGTAVVWYQQKPGQSPKLLIYWASTRHTGVPDRFTGSGFGTDFTLTISNVQSEDLADYFCQQFSSYPYTFGGGTKLEIKR
fold reduction in 61D8 binding (against 14R1): 30 fold
